Source: US20200231679A1 (DRAGONFLY THERAPEUTICS, published 2020)
Changes are numbered by the printed parent chain.

B1: ADI-27749 (antibody, V domains shown)
VH: EVQLVESGGGLVKPGGSLRLSCAASGFTFSSYSMNWVRQAPGKGLEWVSSISSSSSYIYYADSVKGRFTISRDNAKNSLYLQMNSLRAEDTAVYYCARGAPMGAAAGWFDPWGQGTLVTVSS
VL: DIQMTQSPSSVSASVGDRVTITCRASQGISSWLAWYQQKPGKAPKLLIYAASSLQSGVPSRFSGSGSGTDFTLTISSLQPEDFATYYCQQGVSFPRTFGGGTKVEIK
notes: also called A49
B2: ADI-29403 (antibody, V domains shown)
VH: QVQLQQWGAGLLKPSETLSLTCAVYGGSFSGYYWSWIRQPPGKGLEWIGEIDHSGSTNYNPSLKSRVTISVDTSKNQFSLKLSSVTAADTAVYYCARARGPWSFDPWGQGTLVTVSS
VL: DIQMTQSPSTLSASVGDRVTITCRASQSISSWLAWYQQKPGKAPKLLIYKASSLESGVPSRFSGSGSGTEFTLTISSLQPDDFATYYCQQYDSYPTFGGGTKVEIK
B3: ADI-27705 (antibody, V domains shown)
VH: B2 VH
VL: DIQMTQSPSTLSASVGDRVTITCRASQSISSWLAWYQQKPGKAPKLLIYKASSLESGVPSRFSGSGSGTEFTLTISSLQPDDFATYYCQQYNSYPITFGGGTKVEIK
B4: ADI-29419 (antibody, V domains shown)
VH: B2 VH
VL: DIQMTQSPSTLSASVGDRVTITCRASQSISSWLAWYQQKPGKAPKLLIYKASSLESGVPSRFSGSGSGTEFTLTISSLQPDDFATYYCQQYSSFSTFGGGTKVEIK
B5: ADI-29407 (antibody, V domains shown)
VH: B2 VH
VL: DIQMTQSPSTLSASVGDRVTITCRASQSISSWLAWYQQKPGKAPKLLIYKASSLESGVPSRFSGSGSGTEFTLTISSLQPDDFATYYCQQYQSFPTFGGGTKVEIK
B6: ADI-29424 (antibody, V domains shown)
VH: B2 VH
VL: B5 VL with Q92D, P95I
B7: ADI-29447 (antibody, V domains shown)
VH: B2 VH
VL: B5 VL with Q92D, S93T, P95I
notes: also called F47
B8: ADI-29401 (antibody, V domains shown)
VH: B2 VH
VL: B5 VL with S30G, Q92D, S93I, F94Y
B9: ADI-29426 (antibody, V domains shown)
VH: B2 VH
VL: B5 VL with S30G, Q92H
B10: ADI-29429 (antibody, V domains shown)
VH: B2 VH
VL: DIQMTQSPSTLSASVGDRVTITCRASQSIGSWLAWYQQKPGKAPKLLIYKASSLESGVPSRFSGSGSGTEFTLTISSLQPDDFATYYCQQYELYSYTFGGGTKVEIK
B11: ADI-28226 (antibody, V domains shown)
VH: B2 VH
VL: B10 VL with G30S, E92G, L93S, Y94F, S95P, Y96I
notes: also called C26
B12: ADI-29421 (antibody, V domains shown)
VH: B2 VH
VL: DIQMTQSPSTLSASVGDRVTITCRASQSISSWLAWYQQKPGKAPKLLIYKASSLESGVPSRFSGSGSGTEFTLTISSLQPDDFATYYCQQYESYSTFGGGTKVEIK
B13: ADI-29404 (antibody, V domains shown)
VH: B2 VH
VL: B5 VL with Q89E, Q92D, F94Y
notes: also called F04
B14: ADI-27741 (antibody, V domains shown)
VH: B2 VH
VL: B5 VL with S30G, Y91S, Q92N, F94Y, P95Y
B15: ADI-29425 (antibody, V domains shown)
VH: B2 VH
VL: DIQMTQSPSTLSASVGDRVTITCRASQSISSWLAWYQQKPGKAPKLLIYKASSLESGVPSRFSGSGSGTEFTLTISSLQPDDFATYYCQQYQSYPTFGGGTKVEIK
B16: ADI-29405 (antibody, V domains shown)
VH: B2 VH
VL: B5 VL with Q92G
B17: ADI-29399 (antibody, V domains shown)
VH: B2 VH
VL: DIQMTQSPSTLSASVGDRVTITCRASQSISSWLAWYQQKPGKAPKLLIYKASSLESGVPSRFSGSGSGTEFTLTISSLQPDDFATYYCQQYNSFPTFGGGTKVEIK
B18: ADI-27740 (antibody, V domains shown)
VH: B2 VH
VL: B5 VL with S30G, Q92H, P95Y
notes: also called A40
B19: ADI-27743 (antibody, V domains shown)
VH: B2 VH
VL: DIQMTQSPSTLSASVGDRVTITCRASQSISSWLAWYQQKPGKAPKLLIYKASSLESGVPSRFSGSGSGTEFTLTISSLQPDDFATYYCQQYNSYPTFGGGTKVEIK
B20: ADI-29378 (antibody, V domains shown)
VH: QVQLVQSGAEVKKPGASVKVSCKASGYTFTSYYMHWVRQAPGQGLEWMGIINPSGGSTSYAQKFQGRVTMTRDTSTSTVYMELSSLRSEDTAVYYCAREGAGFAYGMDYYYMDVWGKGTTVTVSS
VL: EIVLTQSPATLSLSPGERATLSCRASQSVSSYLAWYQQKPGQAPRLLIYDASNRATGIPARFSGSGSGTDFTLTISSLEPEDFAVYYCQQSDNWPFTFGGGTKVEIK
notes: also called E78
B21: ADI-27727 (antibody, V domains shown)
VH: QVQLVQSGAEVKKPGSSVKVSCKASGGTFSSYAISWVRQAPGQGLEWMGGIIPIFGTANYAQKFQGRVTITADESTSTAYMELSSLRSEDTAVYYCARGDSSIRHAYYYYGMDVWGQGTTVTVSS
VL: not shown

Target: T1, recombinant cynomolgus NKG2D-Fc fusion protein (cynomolgus; human, UniProt P61252 73-216)
T1 construct: extracellular domain; not shown: human IgG1 Fc domain
T1 sequence (looked up): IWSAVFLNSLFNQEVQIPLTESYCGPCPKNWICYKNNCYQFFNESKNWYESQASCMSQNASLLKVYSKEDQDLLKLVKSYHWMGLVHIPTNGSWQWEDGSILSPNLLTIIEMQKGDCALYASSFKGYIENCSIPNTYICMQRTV
Test: ELISA on coated NKG2D-Fc

| binding result | Binder |
| --- | --- |
| binds | B1 |
| binds | B2 |
| binds | B3 |
| binds | B4 |
| binds | B5 |
| binds | B6 |
| binds | B7 |
| binds | B8 |
| binds | B9 |
| binds | B10 |
| binds | B11 |
| binds | B12 |
| binds | B13 |
| binds | B14 |
| binds | B15 |
| binds | B16 |
| binds | B17 |
| binds | B18 |
| binds | B19 |
| binds | B20 |
| binds | B21 |
